The source of these data is patent US20060057104A1, “Methods for stimulating tlr irf3 pathways for inducing anti-microbial, anti-inflammatory and anticancer responses” (THE Regents of the University of California Office of the …, priority 2002, published 2006).

For one experiment, the system named is Primary murine B cells. Put plainly: Microarray analysis of primary murine B cells stimulated with LPS or CD40L. The settings on record: LPS 20 μg/mL, soluble CD8/CD40L chimera 300 ng/mL. Type of experiment: cell-based. As for the experimental part:
(A) Primary murine B cells were stimulated with LPS (20 μg/mL) or a soluble CD8/CD40L chimera (300 ng/mL) and RNA was collected at indicated time points and used to conduct microarray analysis. […] Expression changes: Red—Induced, Green—Repressed, Black—No Change. Selected time points were hybridized to microarrays in duplicate to ensure reproducibility.
B cell isolation, target preparation, and hybridization using Affymetrix Mu6500 microarrays were performed as described previously (Dadgostar, H., Zarnegar, B., Hoffman, A., Qin, X.-F., Truong, U., Rao, G., Baltimore, D., and Cheng, G. (2002), Proc. Natl. Acad. Sci. USA 99, 1497-1502). Differential expression data was analyzed by Affymetrix Microarray Suite 4.0 software. Average difference change values were then normalized and the genes were clustered by the uncentered correlation average linkage hierarchical clustering algorithm using Cluster. Data was then visualized as a dendogram using Treeview software (www.rana.Ibl.gov/EisenSoftware.htm).
We have conducted a series of microarray experiments to determine gene expression patterns in murine B cells in response to activating stimuli such as LPS and CD40L. […] Genes were hierarchically clustered using average difference change values derived by comparing control samples (media 4h) with samples from cells treated with indicated stimulus.

In a further experiment the test system is BMMs. Put plainly: Quantitative real-time PCR gene expression in BMMs, wild-type and IFNAR deficient (Example 2). Type of experiment: cell-based, murine. The conditions noted are these: rIFN-β 10, 100, 1000 units. As for the experimental part: Murine BMMs were stimulated with poly(I:C) (10 μg/ml) or lipid A (1 ng/ml) for the indicated times. Total RiNA was isolated and converted to cDNA for quantitative real-time PCR analysis using primers specific for IFN-β, IFI-204, IP10, IκBα, or L32. Experiments were repeated three times, and the data are presented in relative expression units on a log scale, as described in Example 2, infra.
Primary macrophage cells derived from bone marrow cells were stimulated with poly I:C (1 μg/ml) or lipid A (1 ng/ml) for the indicated times, as described in Example 2, infra.
(B) TLR3 and TLR4 mRNA levels were also assessed in cells deficient in IFNAR, and cells stimulated with rIFN-β (10, 100, and 1000 U). Experiments were repeated at least two separate times, and data are presented in relative expression units. L32 was used to normalize all samples.
Both wild-type cells and cells deficient in IFNAR were stimulated with poly I:C (1 μg/ml) or lipid A (1 ng/ml) for either 1 or 4 h. IFN-β, IP10, IFI-204, ICAM1, and L32 mRNA levels were assessed. Data are representative of three independent experiments and presented in relative expression units, as described in Example 2, infra.
Murine bone marrow-derived macrophages (BMMs) were differentiated from marrow as previously described (Doyle, S. E., S. A. Vaidya, R. O'Connell, H. Dadgostar, P. W. Dempsey, T.-T. Wu, G. Rao, R. Sun, M. E. Haberland, R. L. Modlin, and G. Cheng. 2002. IRF3 mediates a TLR3/TLR4-specific antiviral gene program. Immunity 17:251). A129 (IFNAR-1^−/−) (Muller, U., U. Steinhoff, L. F. L. Reis, S. Hemmi, J. Pavlovic, R. M. Zinkernagel, and M. Aguet. 1994. Functional role of type I and type II interferons in antiviral defense. Science 264:1918) and B6129SF2/J wild type control mice were obtained from B&K Universal Ltd. and Jackson Laboratories, respectively. C57/B6 mice were used for all experiments not involving the A129 mice (Jackson Laboratories). Specific TLR activation was achieved using F-583 (Rd mutant) E. coli lipid A for TLR4 (Sigma), CpG oligonucleotides for TLR9 (Invitrogen) and poly I:C for TLR3 (Pharmacia). For experiments employing the TIRAP/MAL inhibitory peptide (CN Biosciences), cells were pretreated for 1 hour with 20 μM peptide or DMSO alone. Cells were then stimulated with PAMPs in the presence of the inhibitory peptide. For experiments using murine rIFN-β (R&D Systems), wild-type macrophage cells were stimulated with 10, 100, or 1000 units. Viral infection and harvest was performed using MHV68 at an M.O.I. of 5 as previously described (Doyle, S. E., S. A. Vaidya, R. O'Connell, H. Dadgostar, P. W. Dempsey, T.-T. Wu, G. Rao, R. Sun, M. E. Haberland, R. L. Modlin, and G. Cheng. 2002. IRF3 mediates a TLR3/TLR4-specific antiviral gene program. Immunity 17:251).
RNA was isolated by standard guanidium isothiocyanate methods. cDNA template for quantitative realtime PCR analysis was then synthesized and PCR was performed using the iCycler thermocycler (Bio-Rad) as previously described (Doyle, S. E., S. A. Vaidya, R. O'Connell, H. Dadgostar, P. W. Dempsey, T.-T. Wu, G. Rao, R. Sun, M. E. Haberland, R. L. Modlin, and G. Cheng. 2002. IRF3 mediates a TLR3/TLR4-specific antiviral gene program. Immunity 17:251). IFN-βIP10, IκBα and IFI-204 primers were the same as those previously described (Doyle, S. E., S. A. Vaidya, R. O'Connell, H. Dadgostar, P. W. Dempsey, T.-T. Wu, G. Rao, R. Sun, M. E. Haberland, R. L. Modlin, and G. Cheng. 2002. IRF3 mediates a TLR3/TLR4-specific antiviral gene program. Immunity 17:251). For other genes, the following primers were used: […]
Background: Real-time PCR tracks product formation cycle by cycle.

B1: CD40L (protein, UniProt P29965 113-261, looked up)
CD40 ligand, soluble form: MQKGDQNPQIAAHVISEASSKTTSVLQWAEKGYYTMSNNLVTLENGKQLTVKRQGLYYIYAQVTFCSNREASSQAPFIASLCLKSPGRFERILLRAANTHSSAKPCGQQSIHLGGVFELQPGASVFVNVTDPSQVSHGTGFTSFGLLKL
Take B1: the “upregulation of genes previously characterized as interferon-responsive” value in the experiment with Primary murine B cells was “not”.

B2: recombinant IFN-β: murine rIFN-β (R&D Systems) (protein, UniProt P01575 22-182, looked up)
Interferon beta: INYKQLQLQERTNIRKCQELLEQLNGKINLTYRADFKIPMEMTEKMQKSYTAFAIQEMLQNVFLVFRNNFSSTGWNETIVVRLLDELHQQTVFLKTVLEEKQEERLTWEMSSTALHLKSYYWRVQRYLKLMKYNSYAWMVVRAEIFRNFLIIRRLTRNFQN
Turning to B2, the “TLR4 mRNA levels” value with BMMs (wild type cells) is listed as “relatively unaltered”. In addition, the “TLR3 mRNA” value in the experiment on BMMs (wild-type primary macrophages) is reported as “dose dependent upregulation”.
